We go through two substances from paper doi:10.1101/2022.06.15.496229.

Test [1] has as its target DHR2 domain of human DOCK10 (DOCK10^DHR2, residues 1695-2151) (human) (UniProt Q96BY6). Description: ITC.
Test [2] has the same target. Description: SEC-MALS.

Chain of DHR2 domain of human DOCK10 (DOCK10^DHR2, residues 1695-2151) (human) (Q96BY6 1695-2151): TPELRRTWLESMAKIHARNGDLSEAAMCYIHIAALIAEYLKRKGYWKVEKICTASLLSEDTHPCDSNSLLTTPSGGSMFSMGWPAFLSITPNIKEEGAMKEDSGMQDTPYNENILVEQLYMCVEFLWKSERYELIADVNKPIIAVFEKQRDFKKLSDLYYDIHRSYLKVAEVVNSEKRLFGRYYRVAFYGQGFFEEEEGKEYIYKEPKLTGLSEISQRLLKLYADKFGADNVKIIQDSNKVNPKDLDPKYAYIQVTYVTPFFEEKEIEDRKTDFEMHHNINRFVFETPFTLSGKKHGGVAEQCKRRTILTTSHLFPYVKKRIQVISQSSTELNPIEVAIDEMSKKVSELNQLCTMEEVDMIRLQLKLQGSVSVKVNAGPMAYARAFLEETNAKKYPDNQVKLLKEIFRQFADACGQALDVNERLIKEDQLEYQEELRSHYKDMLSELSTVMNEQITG

On to “RAC3 (residues 1-192) (from UniProt P60763 1-192) (natural protein)”, for which, in test [1], the dH is -2.05 kcal/mol.

“RAC1 (residues 1-192) (from UniProt P63000 1-192) (natural protein)”: the stoichiometry N (DOCK10^DHR2 per RAC1) in test [2] was found to be 2.
